This note sets out measurements from PMC7210009.

Like-named read-outs stand apart in the source and are kept apart here.

With “PFKP (phosphofructokinase, platelet isoform): S386A”, the degradation_or_half_life entry (phosphorylation at S386) is on record as “no change”. In the case of “PFKP (phosphofructokinase, platelet isoform): AKT inhibitor X (10 μM, 15 hrs)”, the expression_or_secretion entry (phosphorylation at S386) is reported as “no change”. Take “PFKP (phosphofructokinase, platelet isoform): K281R”: the degradation_or_half_life entry (ubiquitination at K281) is given as “decreases”. For “PFKL (phosphofructokinase, liver isoform): K272R”, the degradation_or_half_life entry (ubiquitination at K272) is listed as “decreases”.
